The text below walks through data of PMC4949324.

Numbering of substitutions follows the chain as printed.

In one series the target is T1, C1 WT (ZF10-13) (mouse, UniProt A2A5K6 845-1337).
T1 sequence: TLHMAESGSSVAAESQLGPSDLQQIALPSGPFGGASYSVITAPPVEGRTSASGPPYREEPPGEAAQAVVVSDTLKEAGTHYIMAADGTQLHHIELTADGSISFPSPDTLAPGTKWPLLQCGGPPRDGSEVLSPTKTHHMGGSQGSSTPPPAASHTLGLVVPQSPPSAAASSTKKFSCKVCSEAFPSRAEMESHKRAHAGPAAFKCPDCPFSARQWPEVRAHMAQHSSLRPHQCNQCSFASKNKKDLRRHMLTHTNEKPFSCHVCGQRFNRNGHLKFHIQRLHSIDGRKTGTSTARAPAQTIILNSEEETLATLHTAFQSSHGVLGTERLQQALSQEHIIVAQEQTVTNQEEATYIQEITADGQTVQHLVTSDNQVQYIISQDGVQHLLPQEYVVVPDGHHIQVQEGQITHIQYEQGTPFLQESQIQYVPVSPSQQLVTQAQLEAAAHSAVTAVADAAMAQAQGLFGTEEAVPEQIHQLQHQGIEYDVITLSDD
Kind of series: quantitative EMSA.

Another series deals with T2, C1 R1092W (ZF10-13) (mouse, UniProt A2A5K6 845-1337, R1092W).
T2 sequence: T1 sequence with R248W
Kind of series: quantitative EMSA. In general terms: In EMSA bound probe runs differently from free probe, usually more slowly.

B1: A2 (dsDNA)
DNA 1: AGTCCGACTCAGGACCCCGACCAAGCTG
DNA 2: CAGCTTGGTCGGGGTCCTGAGTCGGACT
As usually defined, the Kd is the constant that tells how readily two partners part at equilibrium. Read a low Kd as a tighter complex. As to B1, the Kd with C1 WT (ZF10-13) was found to be 73.4 ± 7.1 nM; in the series with C1 R1092W (ZF10-13), 1410 ± 117 nM.
